One assay has as its target integrin αV/β5 receptor (Homo sapiens, UniProt P06756+P18084). Briefly: SPOT peptide microarray (μSPOT) binding assay. Conditions: for relative integrin αV/β5 binding in 15-mer peptide library screening: His-tag integrin αV/β5 2.5 nM, semi-quantitative; for relative integrin αV/β5 binding, truncation scanning library of 19-mer epitopes: integrin αV/β5 2.5 nM. The procedure:
μSPOT peptide arrays^25 (CelluSpots, Intavis AG, Cologne, Germany) were synthesized using a RePepSL synthesizer (Intavis AG) on acid labile, amino functionalized, cellulose membrane discs (Intavis AG) containing 9-fluorenylmethy-loxycarbonyl-β-alanine (Fmoc-β-Ala) linkers (minimum loading 1.0 μmol/cm). Synthesis was initiated by Fmoc deprotection using 20% piperidine in N-methylpyrrolidone (NMP) (1×2 and 1 ×4 μL, 3 and 5 min, respectively) followed by washing with dimethylforma-mide (DMF, 7×100 μL per disc) and ethanol (EtOH, 3×300 μL per disc). The loading of the discs were reduced to 50%, by using a mixture of Fmoc-Gly-OH and Boc-Gly-OH (0.25 M: 0.25 M in NMP). All couplings were achieved using 1.2 μL of coupling solution consisting of preactivated amino acids (AAs, 0.5 M) with ethyl 2-cyano-2-(hydroxyimino)acetate oxyma (1.5 M) and N,N′-diisopropylcarbodiimide (DIC, 1.1 M) in NMP (2:1:1, AA:oxyma:DIC). The couplings were carried out 6 times (5, 10, 20, 30, 30, and 30 min, respectively), and subsequently, the membrane was capped twice with capping mixture (5% […] in NMP), followed by washes with DMF (7×100 μL per disc). After chain elongation, final Fmoc deprotection was performed with 20% piperidine in NMP (3×4 μL, 5 min each), followed by 6× washes with DMF, subsequent N-terminal acetylation with capping mixture (3×4 μL, 5 min each) and final washes with DMF (7×100 μL per disc) and EtOH (7×200 μL per disc). Dried cellulose membrane discs were transferred to 96 deep-well blocks and were treated with the side-chain deprotection solution consisting of 80% TFA, 12% DCM, 5% H2O, and 3% TIPS (150 μL per well) for 1.5 h at room temperature (rt). Afterward, the deprotection solution was removed, and the discs were solubilized overnight at rt using a solvation mixture containing 88.5% TFA, 4% trifluoromethansufonic acid (TFMSA), 5% H2O, and 2.5% TIPS (250 μL per well). The resulting peptide-cellulose conjugates were precipitated with ice-cold ether (700 μL per well) and spun down at 1000 rpm for 90 min, followed by an additional wash of the formed pellet with ice-cold ether. The resulting pellets were redissolved in DMSO (250 μL per well) to give final stocks, which were transferred to a 384-well plate and printed (in duplicates) on white coated CelluSpots blank slides (76×26 mm, Intavis AG) using a SlideSpotter robot (Intavis AG).
After the peptide array slides were rinsed with 100 mM phosphate buffered saline (PBS) (pH 7.4), the arrays were blocked with 3% bovine serum albumin (BSA) in PBS for >2 h at rt. Subsequently, the arrays were incubated with His-tagged Integrin receptor (2.5 nM) in blocking for 1 h at rt. After 5×1 min washes with blocking buffer the slides were probed with HRP-conjugated 6x-His tag antibody (1:10000, ab184607, abcam) for 0.5 h at rt. Finally, the slides were washed 3×1 min with PBS, 2×1 min with PBST, 2×1 min PBS at rt. The washed arrays visualized using SuperSignal West Femto Maximum Sensitivity Substrate (Thermo Scientific) with Fusion FX SPectra multimodal imaging platform (Vilber). The resulting blots were analyzed using the Array Analyze Software (Active Motif), which defines the error range of each data set by comparing the intensities of each peptide duplicate on the analyzed array.
Prior to the initial screening, we confirmed that the secondary antibody produces no non-specific binding (‘background binding’) to the coated microscopic slide (FIG. 41A). The relative binding affinity of the resulting peptides was then evaluated in a semi-quantitative manner by screening the μSPOT peptide array with recombinantly expressed His-tag integrin αV/β5 (2.5 nM), followed by incubation with a horse radish peroxidase (HRP) conjugated 6x-His antibody (FIG. 41B). […]

A further assay deals with mouse 3T3-L1 fibroblasts. Briefly: Gene expression in 3T3-L1 fibroblasts (q-PCR). It counts as cell-based. Conditions: 3T3-L1 fibroblasts. As for the experimental part:
3T3-L1 cells (a murine fibroblast cell line) were split onto 12-well plates and grown to confluence before inducing differentiation by treatment with 86 nM insulin, 0.1 μM dexamethasone, and 250 μM methyl isobutylxanthine. Two days after induction, cells were switched to an inducing medium in the presence of recombinant RUCILPs, or commercial recombinant irisin (Sigma, #SRP8039-10UG and Phoenix pharmaceuticals, #067-29A), or phosphate buffered saline (PBS) for two days. Subsequently, cells were maintained in 86 nM insulin in the presence of indicated concentrations of recombinant RUCILPs, 21-AABP1, commercial recombinant irisin, or PBS for four days with medium change every other day for 6 days. Cells were then harvested for q-PCR analysis as described in standard protocol for gene expression analysis.
Total RNA from cells or tissues was extracted according to the instructions provided by manufacturer of RNeasy mini kit (Qiagen) using QIAzol lysis reagent (Qiagen), followed by measurements of RNA purities and concentrations by NanoDrop 2000 spectrophotometer (Thermo Scientific). A total of 1 μg of RNA was used for the reverse transcription to cDNA using the iScript™ Select cDNA Synthesis Kit (Bio-Rad Laboratories). The samples were subjected to real-time PCR using the LC480 system (Roche Diagnostics) after premixing with Precision®PLUS Master Mix (Primer Design). For each indicated gene, samples were run in duplicate in a 384-well plate and ΔΔCt method was used for quantifying the expressions after normalization to the housekeeping Rpl36 or GAPDH gene.
Firstly, we tested the dose-response effects of RUCILPs on gene expression in mouse fibroblasts (3T3-L1), mouse […] (MLO-Y4), and mouse myoblasts (C2C12). To estimate effect on adipocyte browning, we measured expression of Ucp1, Prdm16, Pgc1a, Dio2 and Cox2, and expression of AdipoQ was measured as a marker of white adipocytes. As a marker of bone formation, we measured expression of Sclerostin; and markers of myotube formation included expression of Heyl, Sox3, and Stat3.

In the next assay the test system is integrin receptor. Briefly: Integrin inhibitor pre-treatment in RUCILP2 cellular studies. To be noted: 10 μM for 10 minutes before RUCILP2. It counts as cell-based. As for the experimental part:
Human white pre-adipocytes were cultured until 80% confluent and switched into differentiation media (with 0.3 ml/ml fetal calf serum, 8 μg/ml d-biotin, 0.5 μg/ml insulin, 400 ng/ml dexamethasone). The differentiation process to mature adipocytes was completed after 12-14 days. The treatment of RUCILP2 and irisin started from the third day of differentiation. For integrin complex inhibition, cells were treated with 10 μM of CycloRGDyK (Selleckchem, #S7844) for 10 minutes and washed with PBS before treated with RUCILP2 and irisin, respectively. Cells were harvested after 14 days of differentiation and thermogenesis gene were quantified by quantitative polymerase chain reaction (q-PCR).
Two days after induction, cells were switched to inducing medium in the presence of 15 nM recombinant RUCILP2, or commercial recombinant irisin (Sigma, #SRP8039-10UG and Phoenix pharmaceuticals, #067-29A), or saline for two days. After that, cells were maintained in 86 nM insulin and 1 nM T3 in the presence of indicated concentrations of recombinant RUCILP2 or commercial recombinant irisin, or saline for four days with medium change every other day. For inhibition of the integrin complex, cells were treated with 10 μM of cRGDyK for 10 minutes before treatment with recombinant RUCILP2 or commercial recombinant irisin or saline every other day during 6 days of differentiation. […]

integrin αV/β5 receptor, sequence (P06756 31-992 limits assumed): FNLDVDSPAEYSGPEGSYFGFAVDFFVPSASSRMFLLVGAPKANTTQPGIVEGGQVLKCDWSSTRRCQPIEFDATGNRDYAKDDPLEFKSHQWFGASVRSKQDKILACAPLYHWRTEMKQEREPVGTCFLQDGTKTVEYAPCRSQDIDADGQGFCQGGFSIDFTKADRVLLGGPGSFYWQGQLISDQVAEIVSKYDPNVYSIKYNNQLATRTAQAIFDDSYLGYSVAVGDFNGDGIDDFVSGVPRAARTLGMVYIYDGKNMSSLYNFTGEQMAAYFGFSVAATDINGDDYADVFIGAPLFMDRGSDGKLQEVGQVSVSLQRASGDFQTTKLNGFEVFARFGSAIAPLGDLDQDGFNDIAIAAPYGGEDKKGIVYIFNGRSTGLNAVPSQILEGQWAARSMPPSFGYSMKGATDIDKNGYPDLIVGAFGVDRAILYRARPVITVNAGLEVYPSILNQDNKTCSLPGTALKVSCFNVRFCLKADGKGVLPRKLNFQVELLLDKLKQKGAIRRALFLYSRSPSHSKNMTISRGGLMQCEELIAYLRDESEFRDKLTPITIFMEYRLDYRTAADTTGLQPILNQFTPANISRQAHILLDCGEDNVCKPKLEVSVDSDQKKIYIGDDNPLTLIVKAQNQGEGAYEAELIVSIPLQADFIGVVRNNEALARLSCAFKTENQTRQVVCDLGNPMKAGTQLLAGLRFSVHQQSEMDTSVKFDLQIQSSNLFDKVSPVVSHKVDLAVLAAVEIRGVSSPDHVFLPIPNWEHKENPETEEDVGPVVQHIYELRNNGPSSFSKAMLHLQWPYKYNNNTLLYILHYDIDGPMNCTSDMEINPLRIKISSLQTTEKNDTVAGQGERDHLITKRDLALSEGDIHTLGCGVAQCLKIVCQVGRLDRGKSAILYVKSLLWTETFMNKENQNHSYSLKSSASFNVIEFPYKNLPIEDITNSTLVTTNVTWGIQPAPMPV
integrin αV/β5 receptor, sequence (P18084 24-719 limits assumed): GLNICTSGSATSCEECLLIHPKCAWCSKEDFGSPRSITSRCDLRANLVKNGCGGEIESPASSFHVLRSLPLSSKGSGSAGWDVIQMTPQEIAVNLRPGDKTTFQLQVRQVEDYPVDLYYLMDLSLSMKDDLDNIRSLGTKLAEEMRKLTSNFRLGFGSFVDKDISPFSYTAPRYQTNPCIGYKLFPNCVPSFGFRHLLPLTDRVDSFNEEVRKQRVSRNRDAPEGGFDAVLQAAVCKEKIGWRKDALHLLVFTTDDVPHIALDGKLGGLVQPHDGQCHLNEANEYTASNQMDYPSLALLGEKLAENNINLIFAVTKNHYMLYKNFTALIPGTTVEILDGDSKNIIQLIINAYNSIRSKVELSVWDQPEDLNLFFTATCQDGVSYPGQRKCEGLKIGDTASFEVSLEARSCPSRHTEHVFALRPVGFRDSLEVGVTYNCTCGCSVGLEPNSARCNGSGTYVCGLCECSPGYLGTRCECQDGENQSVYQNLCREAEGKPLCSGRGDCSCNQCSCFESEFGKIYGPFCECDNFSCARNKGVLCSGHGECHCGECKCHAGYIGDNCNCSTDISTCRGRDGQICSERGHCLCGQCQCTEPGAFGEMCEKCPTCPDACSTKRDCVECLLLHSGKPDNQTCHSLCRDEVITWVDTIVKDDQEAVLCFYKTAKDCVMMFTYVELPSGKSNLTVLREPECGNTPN

For the substance “SEQ ID NO: 169: 19-mer binding epitope of RUCILP1, residues 12-30, ETSAKVSWKNAADGKEAAG (Ruminococcus torques)”, the “relative integrin αV/β5 binding in 15-mer peptide library screening” value with integrin αV/β5 receptor is listed as “binding epitopes”.
Take “21-AABP1: the 21-amino acids fragment derived from RUCILP1 (DGTTYSVEVTAVDAAGEESAK; Ruminococcus torques)”: the “effects on browning markers Ucp1, Prdm16, Dio2” value in the assay with mouse 3T3-L1 fibroblasts is reported as “non-significant”.
As to “SEQ ID NO: 183: 19-mer binding epitope of RUCILP2, residues 12-30, ETSAKASWKNAADGKEAAG (Alanine scanning sequence; (1)..(19) Alanine scanning sequence of RUCILP1)”, the “relative integrin αV/β5 binding in 15-mer peptide library screening” value with integrin αV/β5 receptor is listed as “binding epitopes”.
With “SEQ ID NO: 268: 9-mer truncation of RUCILP2 epitope, residues 12-20, ETSAKASWK (Ruminococcus torques)”, the “relative integrin αV/β5 binding, truncation scanning library of 19-mer epitopes” value with integrin αV/β5 receptor is on record as “high binding affinity”.
With “SEQ ID NO: 165: 15-mer of RUCILP2, residues 70-84, AAGNESVKSEKVTFK (Ruminococcus torques)”, in the assay with integrin αV/β5 receptor, the “relative integrin αV/β5 binding in 15-mer peptide library screening” value is “significant binding”.
Regarding “SEQ ID NO: 235: 9-mer truncation of RUCILP1 epitope, residues 12-20, ETSAKVSWK (Ruminococcus torques)”, the “relative integrin αV/β5 binding, truncation scanning library of 19-mer epitopes” value with integrin αV/β5 receptor is listed as “high binding affinity”.
Take CycloRGDyK: the “effect of pre-treatment on cellular effects of RUCILP2” value in the assay with integrin receptor is recorded as “blocked”.
For the substance “SEQ ID NO: 168: C-terminal 15-mer of RUCILP2, residues 73-87, NESVKSEKVTFKTLK (Ruminococcus torques)”, the “relative integrin αV/β5 binding in 15-mer peptide library screening” value with integrin αV/β5 receptor was “relatively high affinity”.
With “SEQ ID NO: 95: C-terminal 15-mer of RUCILP1, residues 74-88, ESAKSEKVEFTTVKK (Ruminococcus torques)”, the “relative integrin αV/β5 binding in 15-mer peptide library screening” value in the assay with integrin αV/β5 receptor is on record as “relatively high affinity”.

The values above are taken from patent publication US20240336661A1, “PEPTIDES DERIVED FROM RUMINOCOCCUS TORQUES” (University of Copenhagen, priority 2021, published 2024).
